Test results as given in paper PMC5013273.
Values belong to the molecule of their own block, whether it stands above or below them.

Biological target: zona pellucida of in vitro matured (IVM) porcine oocytes (pig (endogenous on porcine oocytes))

ZP digestion time in 0.5% pronase after 1 hr exposure of IVM porcine oocytes to 5, 50 and 125 μg/ml rOVGP1: 989 min
Molecule: full-length rabbit OVGP1, recombinant, histidine-tagged (natural protein)

ZP digestion time in 0.5% pronase after 1 hr exposure of IVM porcine oocytes to 125 and 250 μg/ml pOVGP1: 102 min
B1: full-length porcine OVGP1 (oviduct-specific glycoprotein, oviductin), recombinant, histidine-tagged (natural protein)
chain: HKLVCYFANWAFSRPGPASILPRDLDPFLCTHLVFAFASMNDSQIVAKDARDESIFYPEFNQLKERNEKLKTLLSIGGWNFGTSRFTTMLSTFTNREKFIRSAIGLLRTHGFDGLDLFFLYPGLRGSPRRDRWNFLFLLEELLLAFRREAQLTMRPRLLLSAAVSADPHVIQKAYDVRLLGRLLDFINVLSYDLHGSWEKVTGHNSPLFSLSDDPKSSAYTMNYWRKLGAPPEKLLMGFPTYGRTFRLLKASKNELGAEAVGPASPGKYTKQAGFLAYYEVCSFVQRAKKRWIDHQYVPYAYRGKEWVGYDDDISFSYKAFFIKKEHFGGAMVWTLDLDDVRGTFCGTGPFPLVYMLNDLLLKAEVSSTLSPGFGLSTTVNSSRTCPESLAVTKDLTTDLGILPLGGEAVATETHGRSDNMTVTPGGGLVAPTRPTLSFGKLTVAPEGKTESPGEKAMTPVGHPSVTPGDMSVPPVPIQTGDRITPPRRQAVAPEKMTLPSGKRSD

ZP digestion time in 0.5% pronase after 1 hr exposure of IVM porcine oocytes to 125 and 250 μg/ml pOVGP1AB: 7.75 h
B2: truncated porcine OVGP1 lacking region D (regions A and B, 481 aa), recombinant, histidine-tagged (domain or fragment)
chain: HKLVCYFANWAFSRPGPASILPRDLDPFLCTHLVFAFASMNDSQIVAKDARDESIFYPEFNQLKERNEKLKTLLSIGGWNFGTSRFTTMLSTFTNREKFIRSAIGLLRTHGFDGLDLFFLYPGLRGSPRRDRWNFLFLLEELLLAFRREAQLTMRPRLLLSAAVSADPHVIQKAYDVRLLGRLLDFINVLSYDLHGSWEKVTGHNSPLFSLSDDPKSSAYTMNYWRKLGAPPEKLLMGFPTYGRTFRLLKASKNELGAEAVGPASPGKYTKQAGFLAYYEVCSFVQRAKKRWIDHQYVPYAYRGKEWVGYDDDISFSYKAFFIKKEHFGGAMVWTLDLDDVRGTFCGTGPFPLVYMLNDLLLKAEVSSTLSPGFGLSTTVNSSRTCPESLAVTKDLTTDLGILPLGGEAVATETHGRSDNMTVTPGGGLVAPTRPTLSFGKLTVAPEGKTESPGEKAMTP
